Measured values: article PMC7031854

Columns and labels:
[1] = target: GST-tagged lamprey γ-synuclein NTD (lamprey); assay: pull-down; 50-100 μg GST-tagged protein as bait, 1-5 mg rat brain extract in HKET buffer (25 mM HEPES K+, 150 mM KCl, 1 mM EDTA, 1% Triton X-100, pH 7.4); bound proteins detected by Western blot, band intensity in AU
[2] = target: GST-tagged lamprey γ-synuclein NTD (lamprey); assay: pull-down; direct binding: 50-100 μg GST-tagged protein as bait, 100 μg purified recombinant bovine Hsc70 or truncation, without nucleotides; Western blot, band intensity in AU
[3] = target: GST-tagged human α-synuclein (full length, wild type) (human) (UniProt P37840); assay: pull-down; 50-100 μg GST-tagged protein as bait, 1-5 mg lamprey CNS (brain and spinal cord) extract in HKET buffer; bound Hsc70 detected by Western blot, band intensity in AU
[4] = target: GST-tagged human α-synuclein NTD (a.a. 1-102) (human) (UniProt P37840); assay: as above

Hsc70 from rat brain extracts (from UniProt P63018 1-646) (natural protein)
band intensity (AU) [1]: 153 AU

His-tagged recombinant bovine Hsc70 (from UniProt P19120 1-650) (natural protein)
band intensity (AU) [2]: 62.8 AU

endogenous Hsc70 from lamprey brain and spinal cord extracts (natural protein)
band intensity (AU) [3]: 106 AU | band intensity (AU) [4]: 154 AU
